Key:
HP1α = HP1α (UniProt P45973); test: SEC-MALS molar mass (CSD-mediated dimer); conditions: sites S11,S12,S13,S14
HP1α ΔCSD, 1-120 = HP1α ΔCSD, 1-120 (UniProt P45973); test: SEC-MALS molar mass; conditions: reference: ΔCSD expressed without CK2; sites S11,S12,S13,S14
[1] = molecular target: Phosphorylated CSD deletion mutant of HP1α_S97A (residues 1–120, phosphorylated at Ser11–Ser14) (human) (UniProt P45973); test: SEC-SAXS; Superdex 200 Increase, 20 mM sodium phosphate pH 7.0, 1 mM DTT, 50 mM NaCl; Rg against concentration; profiles fitted with EOM and with reweighted CGMD ensembles (one- or two-molecule systems)

HP1α, sequence (P45973 whole entry, stated change not applied): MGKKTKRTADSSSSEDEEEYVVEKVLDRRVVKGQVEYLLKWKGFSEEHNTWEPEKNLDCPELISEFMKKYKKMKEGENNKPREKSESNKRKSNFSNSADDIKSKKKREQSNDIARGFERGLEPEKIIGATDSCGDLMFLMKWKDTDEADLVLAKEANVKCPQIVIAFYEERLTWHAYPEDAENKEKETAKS
HP1α ΔCSD, 1-120, sequence (P45973 whole entry, stated change not applied, the tested form may be a part): as the sequence (P45973 whole entry, stated change not applied) above

## HP1α (from UniProt P45973) pHP1α co-expressed with CK2, 50 mM NaCl
HP1α; reference: HP1α expressed without CK2, 50 mM NaCl
  other: molar mass: same; reference 45.7

## HP1α ΔCSD, 1-120 (from UniProt P45973) pΔCSD co-expressed with CK2
HP1α ΔCSD, 1-120
  other: molar mass: none in both; reference 16.3

## Phosphorylated CSD deletion mutant of HP1α_S97A (residues 1–120, phosphorylated at Ser11–Ser14) (from UniProt P45973 1-120) (domain or fragment)
[1]
  stoichiometry N: 2

## HP1α (from UniProt P45973) pHP1α co-expressed with CK2, 500 mM NaCl
HP1α; reference: HP1α expressed without CK2, 500 mM NaCl
  other: molar mass: same; reference 44.5

Source: paper PMC11930357
